The source of these data is the supplement of paper PMC10567573.

The data set is described as follows: protein stability index of a GFP-peptide fusion (GPS, HEK-293T) (PSI 1-6); higher = more stable. The conditions noted are these: c terminus: a fixed tail appended.

± gives the standard deviation.
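Note: 24-mer peptide tiles fused after GFP, lentivirally expressed, FACS-sorted into six equal bins by GFP/DsRed ratio, decoded by Illumina sequencing, PSI is the read-weighted mean bin number.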

Consider GLGAGFGGGFAGGDGLLVGSEKVT [KRT16], for which the protein stability index runs as follows: (treatment: DMSO) 3.98 ± 0.11; (treatment: MLN4924 1 uM, 8 h) 4.081 ± 0.035.
The corresponding values for LRSAGVEQLMYIKEDLIIPHHHSF [FAM50A] are 2.38 ± 0.35 and 2.37 ± 0.25.
The corresponding values for LESELLRGTQYSSLDSLDGLSLTD [PSD2] are 4.53 ± 0.22 and 4.73 ± 0.21.
The corresponding values for EVSQHIKMRMGGRVDFEEFVELIG [CABP4] are 2.44 ± 0.12 and 3 ± 0.44.
As to NLRYGFTKEVMNKYKVHGKEILRT [PPEF2], the protein stability index turned out to be 2.63 ± 0.3 (treatment: DMSO) and 2.57 ± 0.31 (treatment: MLN4924 1 uM, 8 h).
Regarding MASVRIREAKEGDCGDILRLIREL [SAT2], the protein stability index by setting is: (treatment: DMSO) 3.01 ± 0.17; (treatment: MLN4924 1 uM, 8 h) 3.23 ± 0.37.
For VVQTLYPFSSVTEEELNFEKGETM [NCK2] the same measures were 3.66 ± 0.17 and 3.77 ± 0.29.
With ERPYGCDECEKAYFYMSCLVKHKR [ZNF649], the protein stability index was 2.48 ± 0.16 (treatment: DMSO) and 2.81 ± 0.28 (treatment: MLN4924 1 uM, 8 h).
The corresponding values for QARQFRTFHHPTYGSCYTVDGVWT [SCNN1D] are 2.21 ± 0.19 and 2.3 ± 0.2.
For GPGIVGNVLVDPSARIGQNCSIGP [GMPPB] the same measures were 3.74 ± 0.32 and 3.81 ± 0.21.
The corresponding values for HDIIKHPMDLSTVKRKMDGREYPD [BRD3] are 5.02 ± 0.19 and 5.1 ± 0.11.
DIKKVNNFIREQDLYALKSVKIPV [LYSMD4] gave a protein stability index (treatment: DMSO) of 2.38 ± 0.15 and a protein stability index (treatment: MLN4924 1 uM, 8 h) of 2.53 ± 0.4.
For PGNPSLHSRFVELSEAYRVLSREQ [DNAJC4] the same measures were 3.68 ± 0.44 and 3.81 ± 0.21.
Take ETCDLGKIKPEARRYLEKSIKMGK [NLN]: the protein stability index was found to be 4.09 ± 0.18 (treatment: DMSO) and 4.45 ± 0.23 (treatment: MLN4924 1 uM, 8 h).
For MAEASATGACGEAMAAAEGSSGPA [SEPHS2] the same measures were 5.44 ± 0.2 and 5.3 ± 0.17.
For GAIAVFVYASDKEWIRFDQSNVLC [PTGFR] the same measures were 3.02 ± 0.34 and 2.87 ± 0.47.
The corresponding values for RDTRDYAPPPRDYTYRDYGHSSSR [RBMX] are 4.01 ± 0.14 and 3.65 ± 0.77.
Consider GPHPKSKIENGYPLHAPEAYFPYF [CDC14A], for which the protein stability index runs as follows: (treatment: DMSO) 2.53 ± 0.21; (treatment: MLN4924 1 uM, 8 h) 2.69 ± 0.13.
The corresponding values for IFNNVMTLCAMLPLLLFTYLNSFL [SLC29A1] are 3.25 ± 0.25 and 3.23 ± 0.2.
For the sequence MAAHLKKRVYEEFTKVVQPQEEIA [INTS4], the protein stability index worked out at 3.67 ± 0.093 (treatment: DMSO) and 3.68 ± 0.7 (treatment: MLN4924 1 uM, 8 h).
For QGVHQGAGFQDIPKRCLKAREHFG [TSN], the protein stability index is, setting by setting: (treatment: DMSO) 3.31 ± 0.36; (treatment: MLN4924 1 uM, 8 h) 2.9 ± 0.27.
On to LIQDGNPMENLEKQLICPICLEMF [TRIM63], for which the protein stability index was found to be 2.87 ± 0.58 (treatment: DMSO) and 2.97 ± 0.54 (treatment: MLN4924 1 uM, 8 h).
For MAVRPSLPESGLLSVLQIAQQDLA [FANCE] the same measures were 3.29 ± 0.28 and 3.53 ± 0.35.
The corresponding values for IYDNAVQGLRRHEILQWVLQTDSQ [LRRC59] are 2.56 ± 0.2 and 2.64 ± 0.35.
For EQQRIIAILLDAHHKTYDPTYSDF [VDR] the same measures were 2.48 ± 0.37 and 2.27 ± 0.15.
In the case of SPPLSTEAHFMLQVADINDNPPTF [PCDHGA10], the protein stability index turned out to be 3.73 ± 0.17 (treatment: DMSO) and 3.9 ± 0.19 (treatment: MLN4924 1 uM, 8 h).
The corresponding values for ANPYWTSRGSSVSMSGGRFRCPTC [TRIM63] are 2.65 ± 0.47 and 3.1 ± 0.4.
The corresponding values for CSQHWGGMASFRFPETTFISVTAY [TBX6] are 3.18 ± 0.6 and 2.85 ± 0.47.
The corresponding values for VGVATADAPLHSVGYTTLVGNNHE [SPSB1] are 4.25 ± 0.45 and 4.16 ± 0.19.
Take LKERYQKIGDTKRNTPIEALCENF [CSNK1G1]: the protein stability index was determined as 3.43 ± 0.65 (treatment: DMSO) and 3.44 ± 0.49 (treatment: MLN4924 1 uM, 8 h).
For SKYHRFISFTLYLIGFCMFVLSLV [CDS2] the same measures were 2.04 ± 0.36 and 1.86 ± 0.51.
The corresponding values for DKENGENVGLESKYLKKREDSIPL [SASS6] are 5.03 ± 0.18 and 4.76 ± 0.24.
The corresponding values for GPESPPPPYSRLSPRDEYKPLDLS [SMAD6] are 4.67 ± 0.15 and 4.78 ± 0.2.
With NVHFKEETVKLFICELVMALDYLQ [STK32A], the protein stability index is, setting by setting: (treatment: DMSO) 2.81 ± 0.7; (treatment: MLN4924 1 uM, 8 h) 2.85 ± 0.62.
The corresponding values for RPATEAELLTCHSAEYVGHLRATE [HDAC6] are 4.1 ± 0.2 and 3.85 ± 0.19.
With VCMDLRANLKQVKKEDTEKERDLR [TNNI2], the protein stability index reads like this: (treatment: DMSO) 4.71 ± 0.18; (treatment: MLN4924 1 uM, 8 h) 4.77 ± 0.4.
